Common to all, as to assay: FACS on CHO cells, periplasmic scFv
In assay [1] the target is T1, full-length mouse CD70 with C-terminal V5 tag (mouse, UniProt O55237 1-195).
T1 construct: On transfected CHO cells; also called murine CD70
T1 sequence: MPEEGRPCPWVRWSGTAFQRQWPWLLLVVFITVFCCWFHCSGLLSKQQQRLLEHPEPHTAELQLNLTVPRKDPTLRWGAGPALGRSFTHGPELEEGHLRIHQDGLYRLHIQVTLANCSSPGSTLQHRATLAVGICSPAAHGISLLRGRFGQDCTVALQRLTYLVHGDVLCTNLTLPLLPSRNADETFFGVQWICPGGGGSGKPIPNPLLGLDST

In the next assay the target is T2, human CD70 (human, UniProt P32970 1-193).
T2 construct: also called hu CD70; CD27L
T2 sequence: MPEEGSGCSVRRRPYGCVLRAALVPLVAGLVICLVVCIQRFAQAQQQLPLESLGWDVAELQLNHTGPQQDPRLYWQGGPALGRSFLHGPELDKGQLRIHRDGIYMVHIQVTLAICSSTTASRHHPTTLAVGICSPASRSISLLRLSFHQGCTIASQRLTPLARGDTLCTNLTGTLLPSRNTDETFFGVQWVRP

In assay [2] the target is T3, full length human CD70 with C-terminal V5 tag (human, UniProt P32970 1-193).
T3 construct: On transfected CHO cells; also called huCD70-V5
T3 sequence: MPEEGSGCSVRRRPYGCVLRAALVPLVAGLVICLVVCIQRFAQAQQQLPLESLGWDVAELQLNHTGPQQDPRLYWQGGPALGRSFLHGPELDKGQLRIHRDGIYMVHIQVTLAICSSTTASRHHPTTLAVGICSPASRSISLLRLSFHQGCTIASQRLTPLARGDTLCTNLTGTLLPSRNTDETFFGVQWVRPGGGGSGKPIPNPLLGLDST

B1: CD70-64 (scFv)
scFv: EVQLLESGGGLVQPGGSLRLSCAASGFTFSVYAMSWVRQAPGKCLEWVSTISDSGGSTFYADSVKGRFTISRDNSKNTLYLQMNRLRAEDTAVYYCARHDYSNYAYFDYWGQGTLVTVSSGGGGSGGGGSGGGGSEIVLTQSPGTLSLSPGERATLSCRASQSVRSSYLAWYQQKPGQAPRLLIYGASSRATGIPDRFSGSGSGTDFTLTISRLEPEDFAVYYCQQYGDLPFTFGCGTKVEIK
notes: As m32
In the case of B1, the binding result in assay [1] is on record as “no binding”; with human CD70 it was “binds”.

B2: CD70-62 (scFv)
scFv: EVQLVESGGGLVKPGGSLRLSCAASGFTFSSYSMNWVRQAPGKGLEWVSYISSSGGYIYYADSVKGRFTISRDNAKNSLYLQMNSLRAEDAAVYYCSRGDYSNYAYFDYWGQGTLVTVSSGGGGSGGGGSGGGGSDIQMTQSPSSLSASVGDRVTITCRASQGISNYLAWYQQKPGKVPKLLIYAASTLQSGVPSRFSGSGSGTDFTLTISSLQAEDVAVYYCQQYYSTPLTFGGGTKVEIK
notes: As m32
Consider B2, for which the binding result in assay [1] is listed as “no binding”; with human CD70, “binds”.

B3: CD70-73 (scFv)
scFv: EVQLVESGGGLVKPGGSLRLSCAASGFTFSSYSMNWVRQAPGKCLEWVSYISSSGGYIYYADSVKGRFTISRDNAKNSLYLQMNSLRAEDAAVYYCSRGDYSNYAYFDYWGQGTLVTVSSGGGGSGGGGSGGGGSDIQMTQSPSSLSASVGDRVTITCRASQGISNYLAWYQQKPGKVPKLLIYAASTLQSGVPSRFSGSGSGTDFTLTISSLQAEDVAVYYCQQYYSTPLTFGCGTKVEIK
notes: As m32
For B3, the binding result in assay [1] is on record as “no binding”; with human CD70, “binds”.

B4: CD70-61 (scFv)
scFv: EVQLLESGGGLVQPGGSLRLSCAASGFTFSSYAMSWVRQAPGKGLEWVSVISDSGGITDFADSVKGRFTISRDNSRNTLYLQMNSLRAEDTAVYFCARHDYSNYFFFDYWGQGTLVTVSSGGGGSGGGGSGGGGSDIQMTQSPSSLSASVGDRITITCRASQSISNYLNWYQQKPGKAPKLLISAASSLQSGVPSRFSGSGSGTDFTLTISSLQPEDFATYYCQQSYIIPPTFGQGTKVDIK
notes: As m32
Consider B4, for which the results for the binding result (in assay [1]; in the assay with human CD70) were “no binding” and “binds”, respectively.

B5: CD70-67 (scFv)
scFv: EVQLLESGGGLVQPGGSLRLSCAASGFTFSSYAMSWVRQAPGKCLEWVSVISDSGGITDFADSVKGRFIISRDNSRNTLYLQMNSLRAEDTAVYFCARHDYSNYFFFDYWGQGTLVTVSSGGGGSGGGGSGGGGSDIQMTQSPSSLSASVGDRVTITCRASQDISNYLNWYQQKSGKAPELLIYAASSLQSGVPSRFSGSGSGTDFTLTISSLQPEDFATYYCQQSYISPPTFGCGTKVEIK
notes: As m32
As to B5, the binding result in assay [1] is reported as “no binding”; with human CD70, “binds”.

B6: CD70-48 (scFv)
scFv: EVQLLESGGGLVQPGGSLRLSCAASGFTFSSYAMSWVRQAPGKGLEWVSVISDSGGITDFADSVKGRFTISRDNSRNTLYLQMNSLRAEDTAVYFCARHDYSNYFFFDYWGQGTLVTVSSGGGGSGGGGSGGGGSDIQMTQSPSSLSASVGDRVTITCRASQGISNYLAWYQQKPGKVPKLLIYAASILQSGVPSKFSGSGSGTDFTLTISSLQPEDFAIYYCQQYFAYPITFGQGTRLEIK
notes: As m32
Take B6: the binding result in assay [1] was “no binding”; with human CD70, “binds”.

B7: CD70-68 (scFv)
scFv: EVQLLESGGGLVQPGGSLRLSCAASGFTFSSYAMSWVRQAPGKCLEWVSVISDSGGITDFADSVKGRFTISRDNSRNTLYLQMNSLRAEDTAVYFCARHDYSNYFFFDYWGQGTLVTVSSGGGGSGGGGSGGGGSDIQMTQSPSSLSASVGDRVTITCRASQGISNYLAWYQQKPGKVPKLLIYAASILQSGVPSKFSGSGSGTDFTLTISSLQPEDFAIYYCQQYFAYPITFGCGTRLEIK
notes: As m32
On to B7, for which the binding result in assay [1] was “no binding”; with human CD70, “binds”.

B8: CD70-63 (scFv)
scFv: EVQLVESGGGLVKPGGSLRLSCAASGITFSTYTMNWVRQAPGKGLEWVSSISSSSGYIYYADSVKGRFTISRDNAKNSLYLQMNSLRAEDTAVYYCARGDYSNYLYFDLWGRGTLVTVSSGGGGSGGGGSGGGGSEIVLTQSPGTLSLSPGERATLSCRASQSFRSSYLAWYQQKPGQAPRLLIHGASSRATGIPDRFSGSGSGTDFTLTISRLEPEDFAVYYCQLYGSLPITFGQGTRLEIK
For the molecule B8, the binding result in assay [1] is “no binding”; in the assay with human CD70, “binds”.

B9: CD70-59 (scFv)
scFv: QVQLQQWGAGLLKPSETLSLTCAVYDGSVSGFYWSWIRQPPGKGLEWIGEIDHSGSTNYNPSLKSRVTISVDTSKNQFSLKLSSVTAADSAVYYCARNGYSGYLFDYWGQGTLVTVSSGGGGSGGGGSGGGGSDIQMTQSPSSLSASVGDRVTITCRASQIISSYLNWYQQKPGKAPKVLIYGASSMQSGVPSRFSGSGYGTDFTLTISSLQPEDFATYYCQQSYSIPRTFGQGTKLEIK
Take B9: the binding result in assay [1] was “no binding”; with human CD70 it was “binds”.

B10: CD70-57 (scFv)
scFv: QVQLVESGGGVVQPGRSLRLSCAASGFTFSSYGMHWVRQAPGKGLEWVAVIWYDGSSEYYADSVKGRFTISRDNSKNTLYLQMNSLRAEDTAVYYCARDNSYNYYGMDVWGQGTTVTVSSGGGGSGGGGSGGGGSQSVLTQPPSVSGAPGQRVTISCTGSSSNIGAAYDVHWYQQFPGTAPKLLIYVNSHRPPGVPDRFSGSKSGTSASLAITGLQAEDEADYYCLSYDNSLSGSVFGGGTKLTVL
On to B10, for which the binding result in assay [1] is “no binding”; in the assay with human CD70, “binds”.

B11: CD70-56 (scFv)
scFv: QVQLVESGGGVVQPGRSLRLSCAASGFTFSSYGMHWVRQAPGKGLEWVAVISYDGSNKYYADSVKGRFTISRDNSKNTLYLQMNSLRAEDTAVYYCARGRYYGSGSYNYGMDVWGQGTTVTVSSGGGGSGGGGSGGGGSDIQMTQSPSSLSASVGDRVTITCRASQSIFDYLNWYQQKPGKAPKLLIYAASSLQSGVPSRFSGSGFGTDFTLTISSLQPEDFATYYCQQSYSTPLTFGGGTKLEIK
notes: As m32
On to B11, for which the binding result in assay [2] is reported as “no binding”; in assay [1], “no binding”; with human CD70, “binds”.

B12: CD70-71 (scFv)
scFv: QVQLVESGGGVVQPGRSLRLSCAASGFTFSSYGMHWVRQAPGKCLEWVAVISYDGSNKYYADSVKGRFTISRDNSKNTLYLQMNSLRAEDTAVYYCARGRYYGSGSYNYGMDVWGQGTTVTVSSGGGGSGGGGSGGGGSDIQMTQSPSSLSASVGDRVTITCRASQSIFDYLNWYQQKPGKAPKLLIYAASSLQSGVPSRFSGSGFGTDFTLTISSLQPEDFATYYCQQSYSTPLTFGCGTKLEIK
notes: As m32
For the molecule B12, the binding result in assay [2] is on record as “no binding”; in assay [1], “no binding”; in the assay with human CD70, “binds”.

B13: CD70-52 (scFv)
scFv: QVQLQESGPGLVKPSETLSLTCTVSGGSVSTDGYYWSWIRQPPGKGLEWIGYIYYSGSTNYNPSLKSRVTISVDTSKNQFSLKLSSVTAADTAVYYCARGIGLGFEYWGQGTLVTVSSGGGGSGGGGSGGGGSSYVLTQLSSVSVAPGQTARITCGGNNIGSKSVHWYQQKPGQAPVLVVYDDSDRPSGIPERFSGSNSGNTATLTISRVEAGDEADYYCQVWDRSSDQDVVFGGGTKLTVL
notes: As m32
Turning to B13, the results for the binding result (in assay [1]; in the assay with human CD70) were “no binding” and “binds”, respectively.

B14: CD70-51 (scFv)
scFv: QVQLQESGPGLVKPSETLSLTCTVSGGSVSTDGYYWSWIRQPPGKGLEWIGYIYYSGSTNYNPSLKSRVTISVDTSKNQFSLKLSSVTAADTAVYYCARGIGLGFEYWGQGTLVTVSSGGGGSGGGGSGGGGSSYVLTQLTSVSVAPGQTARITCGGNNIGSKSVHWYQQKPGQAPVLVVYDDSDRPSGIPERFSGSNSGNTATLTISRVEAGDEADFYCQVWDRSSDQDVVFGGGTKLTVL
notes: As m32
With B14, the binding result in assay [1] was “no binding”; with human CD70 it was “binds”.

B15: CD70-69 (scFv)
scFv: QVQLQESGPGLVKPSETLSLTCTVSGGSVSTDGYYWSWIRQPPGKCLEWIGYIYYSGSTNYNPSLKSRVTISVDTSKNQFSLKLISVTAADTAVYYCARGIGLGFEYWGQGTLVTVSSGGGGSGGGGSGGGGSSYVLTQLSSVSVAPGQTARITCGGNNIGSKSVHWYQQKPGQAPVLVVYDDSDRPSGIPERFSGSNSGNTATLTISRVEAGDEADYYCQVWDRSSDQDVVFGCGTKLTVL
notes: As m32
With B15, the results for the binding result (in assay [1]; in the assay with human CD70) were “no binding” and “binds”, respectively.

B16: CD70-58 (scFv)
scFv: QVQLQESGPGLVKPSQTLSLTCTVSGGSISSSSYYWGWIRQPPGKGLEWIGSIYHSGGTYFNPSLKSRVTISVDTSKNQFSLKLSSVTAADTAVYYCARHYEILTGYYPDVFDIWGQGTMVTVSSGGGGSGGGGSGGGGSDIQMTQSPSSLSASVGDRVTITCRASQSISSYLNWYQQKPGKAPKLLIYAASNLQSGVSSRFSGSGSGTDFTLTISSLQPEDFATYYCQQSFSSPRTFGQGTKVEIK
With B16, the binding result in assay [1] is “no binding”; with human CD70, “binds”.
